Measurements taken from patent US20240150460A1 (SHENGHE CHINA BIOPHARMACEUTICAL, published 2024).
Each block holds one molecule with its values, some of them ahead of it.

Tests used:
[1] = biological target: T1, NKp30 on NK cells (UniProt O14931 19-201, limits assumed); test: flow cytometry (y axis MFI, x axis in nM); the legend of FIGS. 3a-3h names a stable expression cell line; fit value of a flat curve, far outside the range tested
T1 sequence (looked up): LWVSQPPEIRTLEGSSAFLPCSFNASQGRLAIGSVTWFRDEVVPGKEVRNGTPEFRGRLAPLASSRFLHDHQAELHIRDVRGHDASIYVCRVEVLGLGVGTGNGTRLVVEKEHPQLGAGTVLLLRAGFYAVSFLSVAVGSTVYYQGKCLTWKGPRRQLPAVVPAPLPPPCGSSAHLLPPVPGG

[2] = biological target: T2, human NKp30-his protein (KACTUS; Cat: NKP-HM430) (human, UniProt O14931 19-135, limits assumed); test: BLI (Octet Red96e), antibody captured on AHC sensor, 100 nM human NKp30-his in solution, 1:1 fit
T2 construct: Bought protein (KACTUS NKP-HM430); not shown: His tag
T2 sequence (looked up): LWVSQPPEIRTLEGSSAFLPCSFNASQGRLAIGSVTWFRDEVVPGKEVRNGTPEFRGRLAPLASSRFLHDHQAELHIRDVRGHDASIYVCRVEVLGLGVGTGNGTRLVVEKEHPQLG
Procedure: (§1) After equilibration of the AHC sensor with 0.02% PBST (0.02% Tween 20, pH 7.4, 1*PBS) as buffer for 60 s, the NKp30 antibody in the sample plate was immobilized for 300 s and second equilibration was performed for 180 s. […] human NKp30-his protein (KACTUS; Cat: NKP-HM430) was bound with NKp30 antibody for 300 s and then dissociated for 600 s. After dissociation, 10 mM glycine (pH 2.0) was used as regeneration buffer to regenerate for 30 s.
Subtract the result plot for reference channel H1 from the test result plot. The experimental data fit the 1:1 binding model. The molecular weight of 35 kDa was used to calculate the molar concentration of human NKp30 protein.

[3] = biological target: T2, human NKp30-his protein (KACTUS; Cat: …); test: ELISA, Human-NKp30-His coated at 0.2 µg/mL, antibody from 10 µg/mL in 3-fold steps, goat anti-human Fc, OD450 (Example 11)
Procedure: (§2) Human-NKp30-His (purchased from KACTUS, item No. NKP-HM430) was diluted to 0.2 μg/mL with the coating solution (1×PBS, pH 7.4), and was coated into 96-well enzyme-labelled plates at 100 μL/well and allowed to stand overnight at 4° C. The coating solution was poured off, the plate was washed with 1×PBST at 300 μL/well, washed with a plate washer for 4 times, and patted dry on a plate paper. The plate was blocked with 3% skimmed milk powder at 300 μL/well, and incubated at 37° C. for 1 h. The blocking solution was poured off, washed with a plate washer for 4 times, and patted dry on a plate paper. The reference product and the test product were diluted with 3% skimmed milk powder to 10 μg/mL, and the initial concentration was diluted by 3 times. A total of 11 gradients were diluted, and another blank well was set, and only diluent was added. It was incubated at 37° C. and 100 μL/well for 1 h. Liquid in the wells was discarded, and washed with a plate washer for 4 times, and patted dry on a plate paper. The goat anti-human Fc was diluted with 3% skimmed milk powder at 1: 20,000 and 100 μL/well, and incubated at 37° C. for 1 h. The plate was washed with a plate washer for 6 times, and patted dry on a plate paper. TMB color developing solution was added at 100 μL/well, and wrapped with an aluminum foil, and the color was developed at 37° C. for 8 minutes, protected from light. The termination solution 1 M HCl was added at 100 μL/well to terminate the color development reaction. It was read at 450 nm on an enzyme-labeled instrument.

[4] = biological target: T2, human NKp30-his protein (KACTUS; Cat: …); test: as above; remark: listed apart in the source
Procedure: as §2

[5] = biological target: T1, NKp30 on NK cells; test: flow cytometry (y axis MFI, x axis in nM); the legend of FIGS. 3a-3h names a stable expression cell line; Example 11 describes no cell assay
[6] = biological target: T2, human NKp30-his protein (KACTUS; Cat: …); test: BLI (Octet Red96e), method of Example 6: antibody on AHC sensor, human NKp30-his in solution; second run, Table 4 (Example 12 series with the CDR-modified and humanized variants)
Procedure: as §1
(§3) The affinity of the CDR-modified and humanized antibodies was tested according to the method of Example 6, and the results are shown in Table 4.

[7] = biological target: T2, human NKp30-his protein (KACTUS; Cat: …); test: BLI (Octet Red96e), method of Example 6: antibody on AHC sensor, human NKp30-his in solution
Procedure: as §1, §3

[8] = biological target: T2, human NKp30-his protein (KACTUS; Cat: …); test: ELISA, Human-NKp30-His coated at 0.2 µg/mL, antibody from 10 µg/mL in 3-fold steps, goat anti-human Fc, OD450 (Example 11); the curve stays low: fitted plateau about OD450 0.25, highest point about 0.4 at 3.3 µg/mL, about 0.2 at 10 µg/mL
Procedure: as §2, with “TMB color developing solution was added at 100 μL/well, and wrapped with an aluminum foil, and the color was developed at 37° C. for 8 minutes, protected from light. The termination solution 1 M HCl was added at 100 μL/well to terminate the color development reaction.” left out

[9] = biological target: T2, human NKp30-his protein (KACTUS; Cat: …); test: ELISA, Human-NKp30-His coated at 0.2 µg/mL, antibody from 10 µg/mL in 3-fold steps, goat anti-human Fc, OD450 (Example 11); the fit value lies above the highest concentration tested
Procedure: as §2, with “TMB color developing solution was added at 100 μL/well, and wrapped with an aluminum foil, and the color was developed at 37° C. for 8 minutes, protected from light. The termination solution 1 M HCl was added at 100 μL/well to terminate the color development reaction.” left out

[10] = biological target: T1, NKp30 on NK cells; test: cell-based or functional assay
[11] = biological target: T2, human NKp30-his protein (KACTUS; Cat: …); test: ELISA, Human-NKp30-His coated at 0.2 µg/mL, antibody from 10 µg/mL in 3-fold steps, goat anti-human Fc, OD450 (Example 11); remark: listed apart in the source
Procedure: as §2, with “TMB color developing solution was added at 100 μL/well, and wrapped with an aluminum foil, and the color was developed at 37° C. for 8 minutes, protected from light. The termination solution 1 M HCl was added at 100 μL/well to terminate the color development reaction.” left out

- EC50 [1]: 241000 nM
Molecule: isotype control antibody

- Kd [2]: 2.34 nM
- EC50 [3]: 7.46 ng/mL
- EC50 (read off the curve) [3]: ~7 ng/mL
- EC50 [4]: 2.38 ng/mL
- EC50 [5]: 0.658 nM
- Kd [6]: 0.844 nM
B1: antibody 23 (antibody, V domains shown)
VH: EVQLVESGGGLVQPGGSLRLSCAASGSIFSPNGIGWYRQAPGKLRELVAGITGNGLTDYADSVKGRFTISRDSAKNTVYLQMNSLKTEDTAVYYCNLLLNHAEWGQGTQVTVSS
notes: expressed in CHO cells; also called chimeric antibody 23

- Kd [7]: 1.3 nM
B2: antibody 23-hu44 (antibody, V domains shown)
VH: EVQLVESGGGLVQPGGSLRLSCAASGSIFSPNGIGWYRQAPGKGRELVSGITGNGLTDYAESVKGRFTISRDNSKNTVYLQMNSLRAEDTAVYYCALLLNHAEWGQGTLVTVSS

- Kd [7]: 1.27 nM
- EC50 [5]: 0.493 nM
B3: antibody 23-p (antibody, V domains shown)
VH: EVQLVESGGGLVQPGGSLRLSCAASGSIFSPNGIGWYRQAPGKLRELVAGITGNGLTDYAESVKGRFTISRDSAKNTVYLQMNSLKTEDTAVYYCNLLLNHAEWGQGTQVTVSS

- Kd [7]: 5.93 nM
- EC50 [8]: 230 ng/mL
B4: antibody 23-hu52 (antibody, V domains shown)
VH: EVQLVESGGGLVQPGGSLRLSCAASGSIFSPQGIGWYRQAPGKGRELVSGITGNGLTDYAESVKGRFTISRDNSKNTVYLQMNSLRAEDTAVYYCALLLNHAEWGQGTLVTVSS

- EC50 [4]: 2.27 ng/mL
B5: antibody 23-hu49 (antibody, V domains shown)
VH: EVQLVESGGGLVQPGGSLRLSCAASGSIFSPNAIGWYRQAPGKLRELVAGITGNGLTDYAESVKGRFTISRDNSKNTVYLQMNSLRAEDTAVYYCNLLLNHAEWGQGTLVTVSS

- Kd [7]: 5.1 nM
- EC50 [9]: 76200 ng/mL
B6: antibody 23-hu48 (antibody, V domains shown)
VH: EVQLVESGGGLVQPGGSLRLSCAASGSIFSPNAIGWYRQAPGKGRELVSGITGNGLTDYAESVKGRFTISRDNSKNTVYLQMNSLRAEDTAVYYCALLLNHAEWGQGTLVTVSS

- Kd [7]: 0.991 nM
- EC50 (read off the curve) [3]: ~3 ng/mL
- EC50 [4]: 2.83 ng/mL
B7: antibody 23-hu45 (antibody, V domains shown)
VH: EVQLVESGGGLVQPGGSLRLSCAASGSIFSPNGIGWYRQAPGKLRELVAGITGNGLTDYAESVKGRFTISRDNSKNTVYLQMNSLRAEDTAVYYCNLLLNHAEWGQGTLVTVSS

- IFN-γ secretion by NK cells stimulated with plate-coated antibody, EC50 [10]: 8.83 nM
- EC50 [3]: 8.48 ng/mL
B8: antibody 18-hu3 (antibody, V domains shown)
VH: EVQLVESGGGLVQPGGSLRLSCAASGIRFSIANMGWYRQAPGKLHEMVAGITSDGFTNYADSVKGRFTISRDNSKNTLYLQMNSLRAEDTAVYYCASFPTRHYWGQGTLVTVSS
notes: also called humanized antibody 18-hu3

- Kd [2]: 0.302 nM
- EC50 [3]: 2.51 ng/mL
- EC50 [11]: 3.62 ng/mL
B9: antibody 18 (antibody, V domains shown)
VH: EVQLVESGGGLVQPGGSLRLSCAAAGIRFSIANMGWYRQAPGKLHEMVAGITSDGFTNYADSVKGRFTISRDNAKNTVYLQMNNLKPEDTAVYYCDSFPTRHYWGQGTQVTVSS
notes: expressed in CHO cells; also called chimeric antibody 18

- EC50 [11]: 17 ng/mL
B10: antibody 18-hu4 (antibody, V domains shown)
VH: EVQLVESGGGLVQPGGSLRLSCAASGIRFSIANMGWYRQAPGKLHEMVAGITSDGFTNYADSVKGRFTISRDNSKNTLYLQMNSLRAEDTAVYYCDSFPTRHYWGQGTLVTVSS
